Source: publication PMC8384158

B1: TAP–Bag-1S [human] / PDIA3 [human (endogenous in MCF-7 and MCF-12A)] (parent)
chain 1: MNRSQEVTRDEESTRSEEVTREEMAAAGLTVTVTHSNEKHDLHVTSQQGSSEPVVQDLAQVVEEVIGVPQSFQKLIFKGKSLKEMETPLSALGIQDGCRVMLIGKKNSPQEEVELKKLKHLEKSVEKIADQLEELNKELTGIQQGFLPKDLQAEALCKLDRRVKATIEQFMKILEEIDTLILPENFKDSRLKRKGLVKKVQAFLAECDTVEQNICQETERLQSTNFALAE
chain 2: SDVLELTDDNFESRISDTGSAGLMLVEFFAPWCGHCKRLAPEYEAAATRLKGIVPLAKVDCTANTNTCNKYGVSGYPTLKIFRDGEEAGAYDGPRTADGIVSHLKKQAGPASVPLRTEEEFKKFISDKDASIVGFFDDSFSEAHSEFLKAASNLRDNYRFAHTNVESLVNEYDDNGEGIILFRPSHLTNKFEDKTVAYTEQKMTSGKIKKFIQENIFGICPHMTEDNKDLIQGKDLLIAYYDVDYEKNAKGSNYWRNRVMMVAKKFLDAGHKLNFAVASRKTFSHELSDFGLESTAGEIPVVAIRTAKGEKFVMQEEFSRDGKALERFLQDYFDGNLKRYLKSEPIPESNDGPVKVVVAENFDEIVNNENKDVLIEFYAPWCGHCKNLEPKYKELGEKLSKDPNIVIAKMDATANDVPSPYEVRGFPTIYFSPANKKLNPKKYEGGRELSDFISYLQREATNPPVIQEEKPKKKKKAQEDL
B2: TAP–Bag-1S [human] / Calnexin [human (endogenous in MCF-7 and MCF-12A)] (parent)
chain 1: B1 chain 1
chain 2: HDGHDDDVIDIEDDLDDVIEEVEDSKPDTTAPPSSPKVTYKAPVPTGEVYFADSFDRGTLSGWILSKAKKDDTDDEIAKYDGKWEVEEMKESKLPGDKGLVLMSRAKHHAISAKLNKPFLFDTKPLIVQYEVNFQNGIECGGAYVKLLSKTPELNLDQFHDKTPYTIMFGPDKCGEDYKLHFIFRHKNPKTGIYEEKHAKRPDADLKTYFTDKKTHLYTLILNPDNSFEILVDQSVVNSGNLLNDMTPPVNPSREIEDPEDRKPEDWDERPKIPDPEAVKPDDWDEDAPAKIPDEEATKPEGWLDDEPEYVPDPDAEKPEDWDEDMDGEWEAPQIANPRCESAPGCGVWQRPVIDNPNYKGKWKPPMIDNPSYQGIWKPRKIPNPDFFEDLEPFRMTPFSAIGLELWSMTSDIFFDNFIICADRRIVDDWANDGWGLKKAADGAAEPGVVGQMIEAAEERPWLWVVYILTVALPVFLVILFCCSGKKQTSGMEYKKTDAPQPDVKEEEEEKEEEKDKGDEEEEGEEKLEEKQKSDAEEDGGTVSQEEEDRKPKAEEDEILNRSPRNRKPRRE

Variants of: B1
Test: TAP pull-down interactome analysis (LC-MS/MS)
Details: with PDIA3 [human (endogenous in MCF-7 and MCF-12A)]; MCF-7 cells; read off a plot

Compared with chain 1 MNRSQEVTRDEESTRSEEVTREEMAAAGLTVTVTHSNEKHDLHVTSQQGSSEPVVQDLAQVVEEVIGVPQSFQKLIFKGKSLKEMETPLSALGIQDGCRVMLIGKKNSPQEEVELKKLKHLEKSVEKIADQLEELNKELTGIQQGFLPKDLQAEALCKLDREVKATIEQFMKILEEIDTLILPENFKDSRLKRKGLVKKVQAFLAECDTVEQNICQETERLQSTNFALAE [chain 1 R162E], chain 1 MNRSQEVTRDEESTRSEEVTREEMAAAGLTVTVTHSNEKHDLHVTSQQGSSEPVVQDLAQVVEEVIGVPQSFQKLIFKGKSLKEMETPLSALGIQDGCRVMLKGKKNSPQEEVELKKLKHLEKSVEKIADQLEELNKELTGIQQGFLPKDLQAEALCKLDRRVKATIEQFMKILEEIDTLILPENFKDSRLKRKGLVKKVQAFLAECDTVEQNICQETERLQSTNFALAE [chain 1 I103K] is higher in screen value: -0.62 log2 for the first, -0.07 log2 for the second.

Compared with chain 1 MNRSQEVTRDEESTRSEEVTREEMAAAGLTVTVTHSNEKHDLHVTSQQGSSEPVVQDLAQVVEEVIGVPQSFQKLIFKGKSLKEMETPLSALGIQDGCRVMLIGKKNSPQEEVELKKLKHLEKSVEKIADQLEELNKELTGIQQGFLPKDLQAEALCKLDDRVKATIEQFMKILEEIDTLILPENFKDSRLKRKGLVKKVQAFLAECDTVEQNICQETERLQSTNFALAE [chain 1 R161D], chain 1 MNRSQEVTRDEESTRSEEVTREEMAAAGLTVTVTHSNEKHDLHVTSQQGSSEPVVQDLAQVVEEVIGVPQSFQKLIFKGKSLKEMETPLSALGIQDGCRVMLIGKKNSPQEEVELKKLKHLEKSVEKIADQLEELNKELTGIQQGFLPKDLQAEALCKLDRRVKATIEQFMKILEEIDTLILPENFKDSRLKDKGLVKKVQAFLAECDTVEQNICQETERLQSTNFALAE [chain 1 R193D] is higher in screen value: -1.5 log2 for the first, -0.1 log2 for the second.

Variants of: B2
Test: TAP pull-down interactome analysis (LC-MS/MS)
Details: with Calnexin [human (endogenous in MCF-7 and MCF-12A)]; MCF-7 cells; read off a plot

chain 1 MNRSQEVTRDEESTRSEEVTREEMAAAGLTVTVTHSNEKHDLHVTSQQGSSEPVVQDLAQVVEEVIGVPQSFQKLIFKGKSLKEMETPLSALGIQDGCRVMLKGKKNSPQEEVELKKLKHLEKSVEKIADQLEELNKELTGIQQGFLPKDLQAEALCKLDRRVKATIEQFMKILEEIDTLILPENFKDSRLKRKGLVKKVQAFLAECDTVEQNICQETERLQSTNFALAE [chain 1 I103K] and chain 1 MNRSQEVTRDEESTRSEEVTREEMAAAGLTVTVTHSNEKHDLHVTSQQGSSEPVVQDLAQVVEEVIGVPQSFQKLIFKGKSLKEMETPLSALGIQDGCRVMLIGKKNSPQEEVELKKLKHLEKSVEKIADQLEELNKELTGIQQGFLPKDLQAEALCKLDREVKATIEQFMKILEEIDTLILPENFKDSRLKRKGLVKKVQAFLAECDTVEQNICQETERLQSTNFALAE [chain 1 R162E] are the same in screen value: -1.1 log2 for the first, -1.1 log2 for the second.

First: chain 1 MNRSQEVTRDEESTRSEEVTREEMAAAGLTVTVTHSNEKHDLHVTSQQGSSEPVVQDLAQVVEEVIGVPQSFQKLIFKGKSLKEMETPLSALGIQDGCRVMLIGKKNSPQEEVELKKLKHLEKSVEKIADQLEELNKELTGIQQGFLPKDLQAEALCKLDDRVKATIEQFMKILEEIDTLILPENFKDSRLKRKGLVKKVQAFLAECDTVEQNICQETERLQSTNFALAE [chain 1 R161D]
Second: chain 1 MNRSQEVTRDEESTRSEEVTREEMAAAGLTVTVTHSNEKHDLHVTSQQGSSEPVVQDLAQVVEEVIGVPQSFQKLIFKGKSLKEMETPLSALGIQDGCRVMLIGKKNSPQEEVELKKLKHLEKSVEKIADQLEELNKELTGIQQGFLPKDLQAEALCKLDRRVKATIEQFMKILEEIDTLILPENFKDSRLKDKGLVKKVQAFLAECDTVEQNICQETERLQSTNFALAE [chain 1 R193D]
The screen value of the first is lower: -1.6 log2 for the first, -0.55 log2 for the second.
